Assays:
Assay in all cases: cryo-EM structure
MED20 = target: T1, MED20 (Mus musculus (endogenous in CH12 cells), UniProt Q9R0X0 1-212)
T1 sequence (looked up): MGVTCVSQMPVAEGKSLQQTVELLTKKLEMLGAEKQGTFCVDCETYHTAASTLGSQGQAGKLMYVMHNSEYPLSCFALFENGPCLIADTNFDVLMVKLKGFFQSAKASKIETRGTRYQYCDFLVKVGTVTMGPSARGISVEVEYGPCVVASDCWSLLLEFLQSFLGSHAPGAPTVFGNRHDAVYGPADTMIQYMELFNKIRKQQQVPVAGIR

MED27 = target: T2, MED27 (Mus musculus (endogenous in CH12 cells), UniProt Q9DB40 1-311)
T2 sequence (looked up): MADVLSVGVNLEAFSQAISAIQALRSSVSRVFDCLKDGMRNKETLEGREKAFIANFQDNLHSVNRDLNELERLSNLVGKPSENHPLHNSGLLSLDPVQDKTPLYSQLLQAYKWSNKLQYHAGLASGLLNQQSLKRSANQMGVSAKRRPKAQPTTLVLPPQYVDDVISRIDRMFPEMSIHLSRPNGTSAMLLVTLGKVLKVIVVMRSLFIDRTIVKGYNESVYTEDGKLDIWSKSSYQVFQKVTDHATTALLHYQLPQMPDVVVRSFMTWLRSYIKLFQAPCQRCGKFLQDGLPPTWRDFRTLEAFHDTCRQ

MED17 = target: T3, MED17 (Mus musculus (endogenous in CH12 cells), UniProt Q8VCD5 1-649)
T3 sequence (looked up): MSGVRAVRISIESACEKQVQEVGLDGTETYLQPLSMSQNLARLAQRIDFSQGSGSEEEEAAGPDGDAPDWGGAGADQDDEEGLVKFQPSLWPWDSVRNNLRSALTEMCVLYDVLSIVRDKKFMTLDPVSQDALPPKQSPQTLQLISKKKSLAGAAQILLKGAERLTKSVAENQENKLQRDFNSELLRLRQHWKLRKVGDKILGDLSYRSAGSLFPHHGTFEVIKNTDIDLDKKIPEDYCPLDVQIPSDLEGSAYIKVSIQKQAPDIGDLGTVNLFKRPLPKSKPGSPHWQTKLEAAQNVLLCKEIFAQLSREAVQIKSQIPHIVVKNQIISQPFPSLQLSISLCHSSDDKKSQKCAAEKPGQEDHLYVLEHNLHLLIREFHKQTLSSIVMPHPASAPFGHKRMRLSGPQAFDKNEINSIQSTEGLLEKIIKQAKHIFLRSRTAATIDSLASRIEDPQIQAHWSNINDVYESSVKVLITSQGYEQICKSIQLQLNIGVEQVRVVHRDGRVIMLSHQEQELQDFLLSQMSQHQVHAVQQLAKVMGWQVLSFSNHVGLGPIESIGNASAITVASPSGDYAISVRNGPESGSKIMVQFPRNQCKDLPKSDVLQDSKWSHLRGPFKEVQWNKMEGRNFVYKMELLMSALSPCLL

MED1 = MED1 (Mus musculus (endogenous in CH12 cells), UniProt Q925J9 1-1575)
MED1, sequence (Q925J9 whole entry): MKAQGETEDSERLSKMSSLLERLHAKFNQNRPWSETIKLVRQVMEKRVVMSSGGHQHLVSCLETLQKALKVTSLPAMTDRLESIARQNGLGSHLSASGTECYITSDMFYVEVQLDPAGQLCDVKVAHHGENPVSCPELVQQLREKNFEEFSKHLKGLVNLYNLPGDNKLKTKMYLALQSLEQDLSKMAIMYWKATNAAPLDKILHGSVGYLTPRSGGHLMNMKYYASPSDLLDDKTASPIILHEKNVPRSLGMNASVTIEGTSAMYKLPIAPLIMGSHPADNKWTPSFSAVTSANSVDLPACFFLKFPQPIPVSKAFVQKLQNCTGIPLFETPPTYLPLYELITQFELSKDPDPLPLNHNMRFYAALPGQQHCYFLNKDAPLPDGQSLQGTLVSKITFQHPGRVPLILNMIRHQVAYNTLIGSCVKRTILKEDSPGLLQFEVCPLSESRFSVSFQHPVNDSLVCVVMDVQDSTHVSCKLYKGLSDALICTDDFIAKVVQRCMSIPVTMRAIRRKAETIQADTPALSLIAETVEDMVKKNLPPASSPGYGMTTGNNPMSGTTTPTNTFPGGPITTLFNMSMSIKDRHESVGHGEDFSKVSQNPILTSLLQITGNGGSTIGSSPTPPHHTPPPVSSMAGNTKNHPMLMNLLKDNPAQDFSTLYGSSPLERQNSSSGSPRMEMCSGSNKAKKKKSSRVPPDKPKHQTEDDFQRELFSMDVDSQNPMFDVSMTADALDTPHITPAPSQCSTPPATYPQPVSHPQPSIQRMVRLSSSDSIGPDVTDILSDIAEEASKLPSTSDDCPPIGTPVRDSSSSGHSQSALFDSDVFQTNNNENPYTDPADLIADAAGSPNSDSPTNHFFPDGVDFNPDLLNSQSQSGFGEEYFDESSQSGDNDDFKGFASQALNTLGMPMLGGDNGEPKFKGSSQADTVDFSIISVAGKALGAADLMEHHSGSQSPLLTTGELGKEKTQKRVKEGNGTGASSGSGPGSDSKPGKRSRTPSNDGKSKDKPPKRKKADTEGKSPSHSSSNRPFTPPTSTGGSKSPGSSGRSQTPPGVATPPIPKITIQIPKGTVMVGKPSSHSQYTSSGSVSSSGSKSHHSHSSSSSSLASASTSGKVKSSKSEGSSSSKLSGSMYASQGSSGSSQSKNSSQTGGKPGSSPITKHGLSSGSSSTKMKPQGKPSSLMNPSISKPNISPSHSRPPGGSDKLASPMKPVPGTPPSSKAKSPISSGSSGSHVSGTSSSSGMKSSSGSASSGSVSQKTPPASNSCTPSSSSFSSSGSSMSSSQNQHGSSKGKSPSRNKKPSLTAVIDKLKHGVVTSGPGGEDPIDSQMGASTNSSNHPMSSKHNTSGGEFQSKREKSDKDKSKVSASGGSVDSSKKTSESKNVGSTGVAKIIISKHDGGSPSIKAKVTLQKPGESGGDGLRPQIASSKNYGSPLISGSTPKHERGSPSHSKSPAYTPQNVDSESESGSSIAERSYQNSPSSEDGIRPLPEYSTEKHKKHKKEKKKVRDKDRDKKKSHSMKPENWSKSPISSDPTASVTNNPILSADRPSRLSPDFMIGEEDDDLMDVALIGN

MED4 = target: T4, MED4 (Mus musculus (endogenous in CH12 cells), UniProt Q9CQA5 1-270)
T4 sequence (looked up): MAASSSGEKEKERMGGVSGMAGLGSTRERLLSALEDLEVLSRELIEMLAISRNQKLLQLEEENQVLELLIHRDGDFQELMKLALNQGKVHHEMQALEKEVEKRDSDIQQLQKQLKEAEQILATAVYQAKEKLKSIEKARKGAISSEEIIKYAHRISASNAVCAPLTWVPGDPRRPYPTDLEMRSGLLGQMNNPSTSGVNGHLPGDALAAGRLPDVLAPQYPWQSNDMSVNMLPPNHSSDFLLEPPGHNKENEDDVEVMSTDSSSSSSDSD

MED22 = target: T5, MED22 (Mus musculus (endogenous in CH12 cells), UniProt Q62276 1-200)
T5 sequence (looked up): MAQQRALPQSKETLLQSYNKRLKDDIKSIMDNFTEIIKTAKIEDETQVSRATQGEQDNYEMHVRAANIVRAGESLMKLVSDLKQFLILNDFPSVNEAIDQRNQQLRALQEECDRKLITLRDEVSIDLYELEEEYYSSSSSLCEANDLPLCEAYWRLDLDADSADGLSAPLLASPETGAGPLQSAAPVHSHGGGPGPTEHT

MED28 = target: T6, MED28 (Mus musculus (endogenous in CH12 cells), UniProt Q920D3 1-178)
T6 sequence (looked up): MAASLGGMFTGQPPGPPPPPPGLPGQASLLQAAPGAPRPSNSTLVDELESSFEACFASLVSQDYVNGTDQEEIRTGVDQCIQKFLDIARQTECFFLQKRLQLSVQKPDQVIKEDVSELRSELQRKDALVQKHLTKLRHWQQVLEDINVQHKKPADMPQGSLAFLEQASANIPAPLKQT

MED30 = target: T7, MED30 (Mus musculus (endogenous in CH12 cells), UniProt Q9CQI9 1-178)
T7 sequence (looked up): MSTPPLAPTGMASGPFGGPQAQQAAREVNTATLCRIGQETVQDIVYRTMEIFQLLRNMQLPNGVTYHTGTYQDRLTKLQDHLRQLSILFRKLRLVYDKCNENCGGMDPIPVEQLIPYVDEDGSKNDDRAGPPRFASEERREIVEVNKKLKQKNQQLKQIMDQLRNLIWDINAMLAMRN

MED7 = target: T8, MED7 (Mus musculus (endogenous in CH12 cells), UniProt Q9CZB6 1-233)
T8 sequence (looked up): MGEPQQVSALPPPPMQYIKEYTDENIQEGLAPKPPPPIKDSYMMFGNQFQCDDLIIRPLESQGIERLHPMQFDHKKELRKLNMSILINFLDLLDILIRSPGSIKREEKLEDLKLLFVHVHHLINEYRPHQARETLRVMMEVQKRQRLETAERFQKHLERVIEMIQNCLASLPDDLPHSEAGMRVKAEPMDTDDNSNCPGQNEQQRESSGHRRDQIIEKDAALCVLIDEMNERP

B1: MED18 (natural protein, Mus musculus (endogenous in CH12 cells), UniProt Q9CZ82 1-208, looked up)
chain: MEAPPVTMMPVTGGTINMMEYLLQGSVLDHSLESLIHRLRGLCDNMEPETFLDHEMVFLLKGQQASPFVLRARRSMDRAGAPWHLRYLGQPEMGDKNRHALVRNCVDIATSENLTDFLMEMGFRMDHEFVAKGHLFRKGIMKVVVYKIFRILVPGNTDSTEALSLSYLVELSVVAPAGQDMVSDDMRNFAEQLKPLVHLEKIDPKRLM
- binding result (MED20): binds
- binding result (MED27): binds
- binding result (MED17): binds

B2: MED9 (natural protein, Mus musculus (endogenous in CH12 cells), UniProt Q8VCS6 1-142, looked up)
chain: MASSGVAGGRQAEDTLQPPPELLPESKPPPPPQPLPVAALPPPAAPRPQSPAGAKEENYSFLPLVHNVIKCMDKDSPDLHQDLNALKTKFQELRKLIGTMPGIHVSPEQQQQQLHSLREQVRTKNELLQKYKSLCMFEIPKD
- binding result (MED1): binds
- binding result (MED4): binds

B3: MED11 (natural protein, Mus musculus (endogenous in CH12 cells), UniProt Q9D8C6 1-117, looked up)
chain: MATYSLANERLRALEDIEREIGAILQNAGTAILELSKEKTNERLLDRQAAAFTTSVQHVEAELSAQIRYLTQVATGQPHEGSSYSSRKDCQMALKRVDYARLKISDVARTCEQMLEN
- binding result (MED22): binds
- binding result (MED28): binds
- binding result (MED30): binds

B4: MED21 (natural protein, Mus musculus (endogenous in CH12 cells), UniProt Q9CQ39 1-144, looked up)
chain: MADRLTQLQDAVNSLADQFCNAIGVLQQCGPPASFSNIQTAINKDQPANPTEEYAQLFAALIARTAKDIDVLIDSLPSEESTAALQAASLYKLEEENHEAATCLEDVVYRGDMLLEKIQSALADIAQSQLKTRSVTHSHSLPDS
- binding result (MED7): binds

Source: article doi:10.1101/2020.10.05.326918 (bioRxiv, 2020)
